{"source": "paper PMC3777949", "about": "“Dimerization Mediates Thermo-Adaptation, Substrate Affinity and Transglycosylation in a Highly Thermostable Maltogenic Amylase of Geobacillus thermoleovorans” (PLoS ONE, 2013)", "proteins": {"B1": {"name": "dimeric Gt-Mamy (Geobacillus thermoleovorans; D109E) (protein)", "chain": "MRKEAIHHRSTDNFAYAYDSETLHLRLQTKKHDVDHVELLFGDPYEWHDGAWQFQTMPMRKTGSDGLFDYWFAEVKPPYRRLRYGFVLRAGDEKLVYTEKGFYHEAPSEDTAYYFCFPFLHRVDLFQAPDWVKDTVWYQIFPERFANGNPAISPKGARPWGSEDPTPTSFFGGDLQGIIDHLDYLADLGITGIYLTPIFRAPSNHKYDTADYFEIDPHFGDKETLKTLVKRCHEKGIRVMLDAVFNHCGYEFAPFQDVLKNGAASRYKDWFHIREFPLQTEPRPNYDTFAFVPQMPKLNTAHPEVKRYLLDVATYWIREFDIDGWRLDVANEIDHEFWREFRQAVKALKPDVYILGEIWHDAMPWLRGDQFDAVMNYPFTDGALRFFAKEEISARQFADIMVRLLHSYPKHVNEAAFNLLGSHDTPRLLTICGDDVRKAKLLFLFQLTFTGSPCIYYGDEIGMTGGNDPECRKCMVWDPEKQNKELYEHVKQLIALRRQYRALRRGDVAFLAADDEANHLVYEKTDGNETVMIIINRSNEAAEIPMPIDARGKWLVNLLTGERFAAEAETLCVSLPPYGFVLYAVESW", "notes": "full length 588 aa, pCOLD I (Ni-NTA purified, tag kept), E. coli BL21(DE3); homodimer 145 kDa separated by Sephacryl S-200"}}, "key": {"[1]": {"substrate": "OC[C@H]1O[C@@H]2O[C@H]3[C@H](O)[C@@H](O)[C@@H](O[C@H]4[C@H](O)[C@@H](O)[C@@H](O[C@H]5[C@H](O)[C@@H](O)[C@@H](O[C@H]6[C@H](O)[C@@H](O)[C@@H](O[C@H]7[C@H](O)[C@@H](O)[C@@H](O[C@H]1[C@H](O)[C@H]2O)O[C@@H]7CO)O[C@@H]6CO)O[C@@H]5CO)O[C@@H]4CO)O[C@@H]3CO", "assay": "DNSA reducing-sugar assay", "assay_type": "biochemical, Geobacillus thermoleovorans", "conditions": "100 mM sodium phosphate pH 7.0, 80°C, dimeric mutant", "source_text": "(§1) DNSA reducing-sugar assay on dimeric Gt-Mamy"}, "[2]": {"substrate": "OC[C@H]1O[C@@H]2O[C@H]3[C@H](O)[C@@H](O)[C@@H](O[C@H]4[C@H](O)[C@@H](O)[C@@H](O[C@H]5[C@H](O)[C@@H](O)[C@@H](O[C@H]6[C@H](O)[C@@H](O)[C@@H](O[C@H]7[C@H](O)[C@@H](O)[C@@H](O[C@H]8[C@H](O)[C@@H](O)[C@@H](O[C@H]1[C@H](O)[C@H]2O)O[C@@H]8CO)O[C@@H]7CO)O[C@@H]6CO)O[C@@H]5CO)O[C@@H]4CO)O[C@@H]3CO", "assay": "DNSA reducing-sugar assay", "assay_type": "biochemical, Geobacillus thermoleovorans", "conditions": "100 mM sodium phosphate pH 7.0, 80°C, dimeric mutant", "source_text": "as §1"}}}
{"protein": "B1", "values": [{"measurement": "Km", "setting": "[1]", "value": 0.21, "unit": "mg/mL"}, {"measurement": "Km", "setting": "[2]", "value": 0.60, "unit": "mg/mL"}]}
